In patent publication US20250320480A1, “Immunoglobulin Cleaving Enzyme” (priority 2021, published 2025):
Entries after “also recorded” stand apart in the source; their conditions may differ. Non-standard residues stand in square brackets, D forms with d. Residues, ends and D or L forms follow the SMILES beside them. *: point of attachment. Sta = CC(C)C[C@H](N)[C@@H](O)CC(=O)O; Isovaleryl = CC(C)CC(=O)*

Experiments:
[1] = system: IdeSork2.0; assay: Protease inhibitor assay; type: biochemical, Streptococcus krösus; details: IgG1 pre-incubated with inhibitor, IdeSork2.0 1:5, overnight at 37° C., SDS-PAGE
Description: FIG. 4. Protease inhibitor sensitivity of IdeSork2.0.
IgG1 (trastuzumab) was pre-incubated with a set of protease inhibitors (G-Biosciences) before addition of IdeSork2.0 (of SEQ ID NO: 3) (1:5), and the mixture was allowed to incubate overnight at 37° C. before analysis on SDS-PAGE.

[2] = system: casein; assay: General protease activity, EnzChek protease assay; type: biochemical; details: casein substrate; FabULOUS 5 μg, FabRICATOR 10 μg, IdeSORK2.0 10 μg
Description: FIG. 2. General protease activity. General protease activity was measured with the EnzCHECK protease assay, using casein as a substrate.
General protease activity was determined using the EnzChek Protease Assay kit, according to manufacturer's instructions. As a positive control the general protease FabULOUS (SpeB, 5 μg) was used, and as a negative control the IgG-specific protease FabRICATOR (IdeS, 10 μg). IdeSORK2.0 was added to a total quantity of 10 μg.

[3] = molecular target: human IgG1
[4] = molecular target: human IgG2
[5] = system: IgG1; assay: Comparison to other IgG proteases: IgG1; type: biochemical; details: SDS-PAGE
Description: (§1) FIG. 10. IdeSork2.0 is having a similar activity compared to IdeS and IdeZ. To investigate if IdeSork2.0 is hydrolyzing IgG in a similar way as IdeS and IdeZ they were all incubated against IgG1 and IgG2 and analyzed on SDS-PAGE. The cleavage patterns look identical, with both IdeSork2.0 and IdeS having less activity towards IgG2.
(§2) To further look into the activity of IdeSORK2.0, its activity was compared with IdeS and IdeZ against both IgG1 and IgG2.

[6] = system: IgG2; assay: Comparison to other IgG proteases: IgG2; type: biochemical; details: SDS-PAGE
Description: as §1, §2

[7] = system: IgG in human serum; assay: Activity of IgG hydrolases in human serum; type: biochemical; details: serum (100%), E:S 1:40, 0-4 hours at 37° C., non-reduced SDS-PAGE
Description: FIG. 15. Activity of IgG hydrolases in human serum. Serum (100%) was spiked with IgG hydrolases and activity was analyzed over time using non-reduced SDS-PAGE.
For serum activity assays, an E: S ratio of 1:40 (assuming 10 mg/mL IgG in serum) was used, incubating 0-4 hours at 37° C. before analysis on a non-reduced SDS-PAGE. All enzymes were supplied by Genovis AB.

[8] = system: human IgG; details: in particular when cleaving IgG2; cited from earlier work
[9] = molecular target: IVIG
[10] = molecular target: IgG
[11] = molecular target: cow IgG
[12] = molecular target: denatured and reduced IgG
[13] = molecular target: dog IgG
[14] = molecular target: guinea pig IgG
[15] = molecular target: horse IgG
[16] = molecular target: human IgA
[17] = molecular target: monoclonal IgG4
[18] = molecular target: mouse IgG1
[19] = molecular target: mouse IgG2a
[20] = molecular target: mouse IgG2b
[21] = molecular target: porcine IgG
[22] = molecular target: rat IgG
[23] = molecular target: sheep IgG

**Q.** Which “Inhibition of IdeSork2.0 hydrolysis of IgG1 (trastuzumab)” value (shortened to “Inhibition”) [1] does the source give for `CC(C)C[C@H](NC(=O)[C@@H](O)[C@H](N)Cc1ccccc1)C(=O)O` [Bestatin] here?
**A.** The value was “only partly inhibitory”.

**Q.** For aprotinin, which “Inhibition” value [1] is on record?
**A.** The value was “besides aprotinin, EDTA, and pepstatin”.

**Q.** Which “General protease activity (signal)” value [2] does the source give for “FabULOUS: general protease (SpeB), positive control [reference compound]” here?
**A.** The value was “high signal”.

**Q.** Which “Inhibition” value [1] does the source give for `O=C(O)CN(CCN(CC(=O)O)CC(=O)O)CC(=O)O` [EDTA] here?
**A.** The value was “unaffected; also recorded: besides aprotinin, EDTA, and pepstatin”.

**Q.** For `CC(C)CC(=O)N[C@H](C(=O)N[C@H](C(=O)N[C@@H](CC(C)C)[C@@H](O)CC(=O)N[C@@H](C)C(=O)N[C@@H](CC(C)C)[C@@H](O)CC(=O)O)C(C)C)C(C)C` [pepstatin] (Isovaleryl-VV[Sta]A[Sta]-OH), which “Inhibition” value [1] is on record?
**A.** Its value is “besides aprotinin, EDTA, and pepstatin”.

B1: IdeZ (protein)
chain: DDYQRNATEAYAKEVPHQITSVWTKGVTPLTPEQFRYNNEDVIHAPYLAHQGWYDITKAFDGKDNLLCGAATAGNMLHWWFDQNKTEIEAYLSKHPEKQKIIFNNQELFDLKAAIDTKDSQTNSQLFNYFRDKAFPNLSARQLGVMPDLVLDMFINGYYLNVFKTQSTDVNRPYQDKDKRGGIFDAVFTRGDQTTLLTARHDLKNKGLNDISTIIKQELTEGRALALSHTYANVSISHVINLWGADFNAEGNLEAIYVTDSDANASIGMKKYFVGINAHGHVAISAKKIEGENIGAQVLGLFTLSSGKDIWQKLS
**Q.** For B1, which “hydrolysis of IgG, SDS-PAGE” value [3] is on record?
**A.** Its value is “All enzymes were able to hydrolyze the antibodies in seemingly an identical fashion, though slightly different efficiently”.

**Q.** And the “hydrolysis of IgG, SDS-PAGE” value [4]?
**A.** Its value is “All enzymes were able to hydrolyze the antibodies in seemingly an identical fashion, though slightly different efficiently”.

B2: IdeZ: IgG cysteine protease produced by Streptococcus equi ssp. zooepidemicus (protein)
chain: B1 chain
**Q.** For B2, which “Hydrolysis of IgG1” value [5] is on record?
**A.** Its value is “able to hydrolyze”.

**Q.** And the “Hydrolysis of IgG2” value [6]?
**A.** The value was “able to hydrolyze”.

**Q.** What about the “Immunoglobulin cleavage activity in the presence of human serum” value [7] of the same molecule?
**A.** Its value is “immunoglobulin cleavage activity”.

**Q.** And the “IgG cysteine protease activity against human IgG” value [8]?
**A.** Its value is “considerably lower than that of IdeS”.

B3: IdeS (Immunoglobulin G-degrading enzyme of S. pyogenes) (protein)
chain: DSFSANQEIRYSEVTPYHVTSVWTKGVTPPANFTQGEDVFHAPYVANQGWYDITKTFNGKDDLLCGAATAGNMLHWWFDQNKDQIKRYLEEHPEKQKINFNGEQMFDVKEAIDTKNHQLDSKLFEYFKEKAFPYLSTKHLGVFPDHVIDMFINGYRLSLTNHGPTPVKEGSKDPRGGIFDAVFTRGDQSKLLTSRHDFKEKNLKEISDLIKKELTEGKALGLSHTYANVRINHVINLWGADFDSNGNLKAIYVTDSDSNASIGMKKYFVGVNSAGKVAISAKEIKEDNIGAQVLGLFTLSTGQDSWNQTN
**Q.** What does the source list for B3?
**A.** hydrolysis of IgG, SDS-PAGE [3]: All enzymes were able to hydrolyze the antibodies in seemingly an identical fashion, though slightly different efficiently; hydrolysis of IgG, SDS-PAGE [4]: All enzymes were able to hydrolyze the antibodies in seemingly an identical fashion, though slightly different efficiently

B4: IdeS: Immunoglobulin G-degrading enzyme of S. pyogenes, IgG-specific cysteine protease (protein)
chain: B3 chain
**Q.** Which “General protease activity (signal)” value [2] does the source give for B4 here?
**A.** Its value is “almost no signal”.

**Q.** And the “Hydrolysis of IgG1” value [5]?
**A.** The value was “able to hydrolyze”.

**Q.** What about the “Hydrolysis of IgG2” value [6] of the same molecule?
**A.** The value was “able to hydrolyze; also recorded: less activity”.

**Q.** And the “Immunoglobulin cleavage activity in the presence of human serum” value [7]?
**A.** The value was “immunoglobulin cleavage activity”.

B5: IdeSORK2.0 (protein)
chain: MSKRKLLKKIEKKDTSSVLTQKKQTKTLWADGVQVDDKDFKPSTENFGTNYLAAEYGIGKGYYDINKKFDGTDDDLCSGVVAANQLHWWLDRNKDYIEKYRQQSKDNGVTIGNTDIFELNKLHDEDQSNFFDFIKKSFGNKFLQPERLLNMYINGYGYLTSQDKAKTSQPSPSKLNFFQKVFKNNLLTDKTPINDIDEFSSQTKNALQNHKVLAVSFASIKNRGLGHVVTVWGADFDENGKVVALYVTDSDDRSKNIGNAKLGMKKLRIEVSAQDSSTIKLTGFEDKNSGGSLRHLYSLSTGEQIWKKYFEETHHHHHH
**Q.** Which “hydrolysis of IgG” value [9] does the source give for B5 here?
**A.** Its value is “Incubation with polyclonal IgG (e.g. IVIG) resulted in near complete hydrolysis”.

**Q.** What about the “percentage hydrolysis of IgG” value [10] of the same molecule?
**A.** Its value is “A ratio of 1:40 hydrolyzes >95% of IgG in 30-60 minutes”.

**Q.** And the “hydrolysis of IgG, SDS-PAGE” value [11]?
**A.** The value was “only showed activity against horse and guinea pig IgG (no activity on cow IgG)”.

**Q.** And the “hydrolysis of IgG, SDS-PAGE” value [12]?
**A.** Its value is “IdeSORK2.0 is not active against denatured and reduced IgG”.

**Q.** What about the “hydrolysis of IgG, SDS-PAGE” value [13] of the same molecule?
**A.** Its value is “only showed activity against horse and guinea pig IgG (no activity on dog IgG)”.

**Q.** What about the “hydrolysis of IgG, SDS-PAGE” value [14] of the same molecule?
**A.** The value was “only showed activity against horse and guinea pig IgG”.

**Q.** And the “hydrolysis of IgG, SDS-PAGE” value [15]?
**A.** The value was “only showed activity against horse and guinea pig IgG”.

**Q.** And the “hydrolysis, SDS-PAGE” value [16]?
**A.** Its value is “IdeSORK2.0 is not active towards IgA”.

**Q.** And the “hydrolysis of IgG, SDS-PAGE” value [17]?
**A.** The value was “can also hydrolyze monoclonal IgG4”.

**Q.** And the “hydrolysis of IgG, SDS-PAGE” value [18]?
**A.** Its value is “but not mIgG1 or mIgG2b”.

**Q.** And the “hydrolysis of IgG, SDS-PAGE” value [19]?
**A.** The value was “the protease is active against mIgG2a”.

**Q.** What about the “hydrolysis of IgG, SDS-PAGE” value [20] of the same molecule?
**A.** The value was “but not mIgG1 or mIgG2b”.

**Q.** And the “hydrolysis of IgG, SDS-PAGE” value [21]?
**A.** The value was “only showed activity against horse and guinea pig IgG (no activity on porcine IgG)”.

**Q.** And the “hydrolysis of IgG, SDS-PAGE” value [22]?
**A.** The value was “only showed activity against horse and guinea pig IgG (no activity on rat IgG)”.

**Q.** What about the “hydrolysis of IgG, SDS-PAGE” value [23] of the same molecule?
**A.** The value was “only showed activity against horse and guinea pig IgG (no activity on sheep IgG)”.
